Test results reported in patent US20210196796A1 (SYNTHEKINE, published 2021).
Changes are numbered by the printed parent chain. Numbers in names are those of the source. One block for each binder: values may come before it.

Assays:
[1] = target: T1, orthogonal hCD122 receptor (hoRb), hCD122 with H133D and Y134F (human, UniProt P14784 27-550); test: cell-based or functional assay
T1 sequence: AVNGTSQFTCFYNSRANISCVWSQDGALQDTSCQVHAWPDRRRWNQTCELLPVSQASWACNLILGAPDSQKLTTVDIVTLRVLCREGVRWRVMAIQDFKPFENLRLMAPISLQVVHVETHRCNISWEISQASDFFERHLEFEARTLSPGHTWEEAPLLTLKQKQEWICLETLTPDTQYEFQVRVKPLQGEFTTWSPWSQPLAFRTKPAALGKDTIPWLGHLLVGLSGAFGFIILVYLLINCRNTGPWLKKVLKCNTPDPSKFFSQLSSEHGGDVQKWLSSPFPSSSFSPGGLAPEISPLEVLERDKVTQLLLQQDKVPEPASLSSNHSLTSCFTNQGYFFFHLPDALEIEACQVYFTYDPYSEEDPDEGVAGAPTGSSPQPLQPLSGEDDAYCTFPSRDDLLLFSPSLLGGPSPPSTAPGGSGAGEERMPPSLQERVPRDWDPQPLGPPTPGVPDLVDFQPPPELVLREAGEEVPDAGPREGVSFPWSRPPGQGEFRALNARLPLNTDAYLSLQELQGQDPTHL

[2] = target: T1, orthogonal hCD122 receptor (hoRb), …; test: cell-based or functional assay; remark: listed apart in the source
Wherever Relative Proliferation Fold Change 3F8 1:10 is given: reference of the scale not given here.
Wherever Relative Proliferation Fold Change 3F8 1:2 is given: reference of the scale not given here.
Wherever Relative Proliferation Fold Change 3F8 1:50 is given: reference of the scale not given here.
Wherever Relative Proliferation Fold Change NKL 1:10 is given: reference of the scale not given here.
Wherever Relative Proliferation Fold Change NKL 1:2 is given: reference of the scale not given here.
Wherever Relative Proliferation Fold Change NKL 1:50 is given: reference of the scale not given here.

NKL Ortho Proliferation Signal 1:2 [1]: 42900 | NKL Ortho Proliferation Signal 1:10 [1]: 35500 | NKL Ortho Proliferation Signal 1:50 [1]: 18400 | Relative Proliferation Fold Change NKL 1:2 [1]: 3.47 fold | Relative Proliferation Fold Change NKL 1:10 [1]: 2.47 fold | Relative Proliferation Fold Change NKL 1:50 [1]: 1.38 fold | 3F8 Ortho Proliferation Signal 1:2 [2]: 28900 cts/min | 3F8 Ortho Proliferation Signal 1:10 [2]: 15100 cts/min | 3F8 Ortho Proliferation Signal 1:50 [2]: 7150 cts/min | Relative Proliferation Fold Change 3F8 1:2 [2]: 50.9 fold | Relative Proliferation Fold Change 3F8 1:10 [2]: 7.35 fold | Relative Proliferation Fold Change 3F8 1:50 [2]: 9.24 fold
B1: T3K, SQVLKA (ligand)
chain: APKSSSTKKTQLQLSQLLVLLKAILNGINNYKNPKLTRMLTFKFYMPKKATELKHLQCLEEELKPLEEVLNLAQSKNFHLRPRDLISNINVIVLELKGSETTFMCEYADETATIVEFLNRWITFCQSIISTLT

NKL Ortho Proliferation Signal 1:2 [1]: 55400 | NKL Ortho Proliferation Signal 1:10 [1]: 56900 | NKL Ortho Proliferation Signal 1:50 [1]: 32700 | Relative Proliferation Fold Change NKL 1:2 [1]: 6.03 fold | Relative Proliferation Fold Change NKL 1:10 [1]: 4.91 fold | Relative Proliferation Fold Change NKL 1:50 [1]: 2.9 fold | 3F8 Ortho Proliferation Signal 1:2 [2]: 36500 cts/min | 3F8 Ortho Proliferation Signal 1:10 [2]: 39700 cts/min | 3F8 Ortho Proliferation Signal 1:50 [2]: 19000 cts/min | Relative Proliferation Fold Change 3F8 1:2 [2]: 33.9 fold | Relative Proliferation Fold Change 3F8 1:10 [2]: 42.8 fold | Relative Proliferation Fold Change 3F8 1:50 [2]: 38.5 fold
B2: T3P, SQVLKA (ligand)
chain: B1 chain with K3P
